The source of these data is PMC9929037.

In the assay the target is nLUC-TaPYL-1D (Triticum aestivum (bread wheat)). The assay is described as follows: split reporter (BiFC, NanoBiT); LCI of cLUC-TaPP2C-7A with nLUC-TaPYL-1D in N. benthamiana leaves with a third protein co-expressed (TN1-GFP, tn1-GFP or GFP empty vector); relative luminescence, GFP EV combination set to 1.

As for TN1-GFP (natural protein), the percent decrease of LUC intensity of cLUC-TaPP2C-7A/nLUC-TaPYL-1D against the GFP EV samples was greater than 50%.
